Patent US20230212305A1, “ANTI-ABCG2 ANTIBODIES AND USES THEREOF” (Kenjockety Biotechnology, Inc., priority 2020, published 2023)

Legend:
[1] = target: T1, ABCG2 (Homo sapiens, UniProt Q9UNQ0); type: cell-based
T1 construct: expressed in transfected cells
T1 sequence (Q9UNQ0 1-655): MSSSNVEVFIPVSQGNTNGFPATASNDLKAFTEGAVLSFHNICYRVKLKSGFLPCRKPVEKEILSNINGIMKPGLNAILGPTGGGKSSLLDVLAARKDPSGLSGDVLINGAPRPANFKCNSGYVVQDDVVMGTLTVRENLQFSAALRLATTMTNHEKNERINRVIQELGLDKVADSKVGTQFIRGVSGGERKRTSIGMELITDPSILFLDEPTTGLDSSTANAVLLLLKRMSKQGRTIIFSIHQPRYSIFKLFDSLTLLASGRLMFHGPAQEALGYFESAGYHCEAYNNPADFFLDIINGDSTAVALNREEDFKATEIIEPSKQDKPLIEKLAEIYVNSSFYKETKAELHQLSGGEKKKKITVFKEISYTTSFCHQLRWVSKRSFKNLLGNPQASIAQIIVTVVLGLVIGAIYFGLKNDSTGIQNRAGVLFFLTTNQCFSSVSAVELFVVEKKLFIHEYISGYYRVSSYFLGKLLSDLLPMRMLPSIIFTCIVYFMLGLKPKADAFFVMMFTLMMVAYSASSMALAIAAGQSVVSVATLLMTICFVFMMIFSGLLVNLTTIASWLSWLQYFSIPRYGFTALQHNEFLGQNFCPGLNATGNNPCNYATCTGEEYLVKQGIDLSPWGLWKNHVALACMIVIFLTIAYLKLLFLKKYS
Description: 293T_ABCG2_OX cells were washed several times and aliquoted into 96-well plates as 50 μl aliquots/well at a cell density of 2×10e6 cells per ml in phenol red-free DMEM. Cells were mixed with 50 μl antibodies or the small molecule inhibitors of ABCG2:-fumitremorgin C (FTC), or its tetracyclic analogue K0143, with a final concentration of 1 μM. Cells were then incubated in the presence of 2.5 μM Mitoxantrone 1 h at 37° C. The cells were subsequently washed twice and finally resuspended in […] PBS. Mitoxantrone fluorescence was measured using excitation at 635 nm and emission at 647 nm. Protocols was measuring efflux blockade are found in Szabo E, et al., PLoS One. 2018 Jan. 17; 13(1):e0190629; Deeken J F, et al., Mol Pharmacol. 2009 November; 76(5):946-56).

[2] = test system: cynomolgus ABCG2; assay: Flow cytometry binding to 293T cells overexpressing cynomolgus ABCG2; set-up: key to Cynomolgus ABCG2 binding: binding=“+”; non-significant binding=“−”
Sequence of cynomolgus ABCG2 (as listed by the source): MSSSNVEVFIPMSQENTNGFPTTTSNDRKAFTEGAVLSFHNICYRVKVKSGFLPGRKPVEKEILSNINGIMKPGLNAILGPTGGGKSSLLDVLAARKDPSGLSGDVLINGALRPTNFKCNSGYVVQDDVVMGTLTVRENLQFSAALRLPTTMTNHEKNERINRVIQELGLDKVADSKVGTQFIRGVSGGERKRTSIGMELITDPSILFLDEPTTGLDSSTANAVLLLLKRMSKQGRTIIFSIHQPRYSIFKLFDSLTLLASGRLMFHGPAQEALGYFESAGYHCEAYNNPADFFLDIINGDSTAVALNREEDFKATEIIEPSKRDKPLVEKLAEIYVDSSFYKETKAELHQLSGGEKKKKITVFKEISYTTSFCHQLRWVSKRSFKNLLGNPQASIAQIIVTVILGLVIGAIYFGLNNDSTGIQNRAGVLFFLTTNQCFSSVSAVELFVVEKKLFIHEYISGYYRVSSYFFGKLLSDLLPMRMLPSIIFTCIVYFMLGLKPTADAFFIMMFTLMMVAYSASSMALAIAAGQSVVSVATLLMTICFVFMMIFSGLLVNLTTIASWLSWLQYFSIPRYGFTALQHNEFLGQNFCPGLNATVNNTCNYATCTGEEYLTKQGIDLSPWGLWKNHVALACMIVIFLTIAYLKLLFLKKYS
Description: (§1) Cell Binding Assays. Antibody binding to cells was evaluated by flow cytometry. 293T cells stably transfected to express human or cynomolgus ABCG2 (293T_ABCG2_OX) were washed once in flow cytometry buffer (PBS+2% FBS+0.02% sodium azide), resuspended at 2×10^6 cells/mL in flow cytometry buffer, and dispensed into 96-well microtiter plates at 0.1 mL/well. Recombinant antibodies were added to cells at 5 ug/mL for initial binding confirmation, or serially diluted from 100 ug/mL in flow cytometry buffer. After incubating cells on ice for 30 min, cells were washed twice with flow cytometry buffer. Bound antibody was detected with PE-labeled F(ab′)2 fragment goat anti-human IgG (Jackson ImmunoResearch) and evaluated on an Attune NxT flow cytometer. EC50 is calculated to be the concentration of antibody that gives half maximal response.

[3] = target: T1, ABCG2; assay: Flow cytometry binding to 293T cells overexpressing human ABCG2 (293T_ABCG2_OX); set-up: key to Binding by FACS: binding=“+”; non-significant binding=“−”
Description: as §1

[4] = test system: 293T_ABCG2_OX cells; type: cell-based, human; settings: cell killing by topotecan on 293T_ABCG2_OX cells; viability relative to IgG control
Description: Cytotoxicity Assays. The effect of antibodies on topotecan cytotoxicity was evaluated on 293T_ABCG2_OX cells, 293T cells stably transfected to express ABCG2. Cells were plated in 0.05 mL of Assay Media (DMEM+10% FBS) at 5000 cells/well in white, flat bottom 96-well tissue culture plates. Topotecan was prepared at 2× final assay concentration by serial dilution from 200 uM in assay media containing test antibodies or control antibodies at 100 ug/mL (2× final concentration), or Fumitremorgin C, a small molecule ABCG2 inhibitor at 20 uM (2× final concentration). An equivalent volume (0.05 mL) of the topotecan/antibody mixture was added to the 293T_ABCG2_OX cells in 96-well plates. The plates were then incubated at 37° C., in 5% CO2. After 72-96 hr plates were equilibrated to room temperature and cell viability assessed using Promega® CellTiter-Glo® Luminescent Cell Viability Assay according to the manufacturer's recommended protocol. Luminescence was measured on a Molecular Devices® FlexStation® 3 Multi-Mode Microplate Reader and data analyzed using GraphPad Prism 8.0 software. Half maximal inhibitory concentration (1050) is the concentration of drug (topotecan or other chemotherapy cytotoxic agent) where the response (cell growth) is reduced by 50%.

5D3: anti-Human ABCG2 Antibody (Clone 5D3) from R&D Systems [Antibody 5D3, reference compound]
Block Efflux [1]: + | Cynomolgus ABCG2 binding [2]: + | binding to cynomolgus ABCG2 (cG2) expressed by 3T3 cells ([2]; FIG. 1B, 3T3 cells stably transfected with cABCG2): binds | Binding by FACS ([3]; 293T_ABCG2_OX cells): + | binding to human ABCG2 expressed on 3T3 and C6 cell lines ([3]; FIG. 1B, stably transfected cells): binds | Killing [4]: ++ (viability ≥10% and <30% of IgG control)
